Read-outs that look alike come from different tables or passages of the source. Non-standard residues stand in square brackets, D forms with d. No end group written: not given here.
B1: ovine corticotropin-releasing factor (oCRF) (peptide)
peptide: SQEPPISLDLTFHLLREVLEMTKADQLAQQAHSNRKLLDIA
modifications: ends and bridges not checked
notes: Synthetic peptide (Fmoc chemistry on TentaGel S RAM resin); also called compound 1

Experiments:
[1] = biological target: T1, rat CRF receptor, type 1 (rCRFR1) (rat, UniProt P35353 24-415); assay: cell-based or functional assay
T1 sequence (looked up): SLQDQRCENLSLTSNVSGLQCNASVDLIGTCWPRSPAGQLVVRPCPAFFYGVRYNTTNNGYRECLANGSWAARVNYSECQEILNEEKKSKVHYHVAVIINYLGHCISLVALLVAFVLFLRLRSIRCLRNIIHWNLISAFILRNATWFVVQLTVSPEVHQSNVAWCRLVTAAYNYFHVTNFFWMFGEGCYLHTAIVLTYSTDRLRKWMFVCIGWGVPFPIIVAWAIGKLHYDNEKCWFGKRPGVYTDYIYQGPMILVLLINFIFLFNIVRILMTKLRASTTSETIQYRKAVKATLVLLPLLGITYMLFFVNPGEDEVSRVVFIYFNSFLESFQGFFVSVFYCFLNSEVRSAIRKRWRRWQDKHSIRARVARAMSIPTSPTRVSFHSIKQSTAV

[2] = biological target: T1, rat CRF receptor, type 1 (rCRFR1); assay: cell-based or functional assay; remark: listed apart in the source
[3] = biological target: mouse CRF receptor, type 2β (mCRFR2β) (mouse) (UniProt Q60748); assay: displacement of [125I-Tyr0]Svg from HEK-mCRFR2β membranes
[4] = biological target: T1, rat CRF receptor, type 1 (rCRFR1); assay: displacement of [125I-Tyr0]oCRF from HEK-rCRFR1 membranes
Description: (§1) Binding assays were performed in 96-well MultiScreen plates (Millipore, Eschborn, Germany) with GF/B filters (pore size 1.0 μm). […] After incubation (60 min, 23° C.), membrane suspension was aspirated through the plate, followed by two washes with assay buffer (0.2 ml, 23°). Radioactivity of the punched filters was measured with a 1470 WIZARD automatic gamma counter (Berthold, Hannover). […] Statistical analysis was performed with ANOVA, and significant differences between groups were determined by post hoc comparison using the Dunn test.

[5] = biological target: T1, rat CRF receptor, type 1 (rCRFR1); assay: as above; remark: listed apart in the source
Description: as §1

[6] = biological target: mouse CRF receptor, type 2β (mCRFR2β) (mouse) (UniProt Q60748); assay: Kd(rCRFR1)/Kd(mCRFR2β) of the peptide normalised to that of astressin; radioligand displacement
[7] = biological target: mouse CRF receptor, type 2β (mCRFR2β) (mouse) (UniProt Q60748); assay: radioligand displacement; this end of the range tied by the Kd ratio of Table 3 (20.8/3.5)
[8] = biological target: mouse CRF receptor, type 2β (mCRFR2β) (mouse) (UniProt Q60748); assay: radioligand binding to membranes of HEK-mCRFR2β cells, displaced by Svg
[9] = biological target: T1, rat CRF receptor, type 1 (rCRFR1); assay: cell-based or functional assay; remark: listed apart in the source

Binder	% IA (intrinsic activity), cAMP production, HEK-rCRFR1 cells [1]	relative in vitro potency, inhibition of oCRF-stimulated cAMP production, HEK-rCRFR1 cells [1]	rel. IA (relative intrinsic activity), cAMP production, HEK-rCRFR1 cells [2]	rel. pot. (relative potency), inhibition of oCRF-stimulated cAMP production, HEK-rCRFR1 cells [2]	Kd [3] [nM]	Kd [4] [nM]	Kd [5] [nM]	Selectivity [6]	fold decrease of binding affinity against [DPhe^11]Svg(11-40) (compound 12) [7] [fold]	specific binding [8] [%]	EC50, cAMP accumulation in HEK-rCRFR1 cells [9] [nM]
LELLRKMIEIEKQEKEKQQAANNRLLLDTI (not fully specified (C-terminus), also called compound 14) [Svg(11-40)]	0.14 relative, oCRF = 1.00	0.76 relative, oCRF = 1.00	0.14 relative, oCRF = 1.00	0.76 relative, oCRF = 1.00	15.4	831	831	37.9			
YELLRKMIEIEKQEKEKQQAANNRLLLDTI (ends and bridges not checked, also called compound 19) [[Tyr^11]Svg(11-40)]			0.09 relative, oCRF = 1.00	0.82 relative, oCRF = 1.00			977	33	1.4 to 5.9		
[dL]ELLRKMIEIEKQEKEKQQAANNRLLLDTI (not fully specified (C-terminus), also called compound 13) [[DLeu^11]Svg(11-40)]	0.22 relative, oCRF = 1.00	0.92 relative, oCRF = 1.00	0.22 relative, oCRF = 1.00	0.92 relative, oCRF = 1.00	20.9	1670	1670	56.1			
YZGPPISIDLSLELLRKMIEIEKQEKEKQQAANNRLLLDTI (125I-iodinated Tyr at position 0) [[^125I-Tyr^0]Svg]										94	
B1	1 relative, oCRF = 1.00		1 relative, oCRF = 1.00					0.002			0.41

Source: US6846803B1, “Antagonists specific for the corticotropin-releasing factor receptor type 2 (CRFR2)” (priority 1998, dated 2005)
